This note sets out measurements from US5661005, “β3 integrin subunit specific polypeptides, cDNAS which encode these polypeptides and methods of producing these polypeptides” (Trustees of the University of Pennsylvania, dated 1997).

Assay [1] concerns the target β3 cytoplasmic tail with mutation of a serine to a proline at amino acid residue 752 (Saccharomyces cerevisiae (strain ATCC 204508 / S288c) (Baker's yeast); Homo sapiens (Human)) (UniProt P04386). The experiment in a line: yeast two-hybrid, quantitative β-galactosidase assay of yeast lysates.
Assay [2] has as its target T1, integrin β2 cytoplasmic domain (Homo sapiens (Human), UniProt P05107).
T1 chain: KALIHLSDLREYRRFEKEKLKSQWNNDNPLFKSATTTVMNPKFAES
The experiment in a line: yeast two-hybrid, quantitative β-galactosidase assay.

Assay [3] deals with T2, integrin β1 cytoplasmic domain (Homo sapiens (Human), UniProt P05556).
T2 chain: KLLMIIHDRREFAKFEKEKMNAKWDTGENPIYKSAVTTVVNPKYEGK
Described as above.

B1: polypeptide encoded by clone 28 (SEQ ID NO: 2), β3 integrin subunit specific polypeptide (other)
chain: GHEGPKITRKKSVITYSPTTGTCQMSLFASPTSSEEQKHRNGLSNEKRKKLNHPSLTESKESTTKDNDEFMMLLSKVEKLSEEIMEIMQNLSSIQ
With B1, the reduction in the interaction (against the unmutated β3 cytoplasmic tail) in assay [1] was found to be 70%. Also, the binding result in assay [2] and in assay [3] was “no binding” throughout.

B2: β3 integrin subunit specific polypeptide comprising about 111 amino acids (SEQ ID NO: 4) (other)
chain: MPVKRSLKLDGLLEENSFDPSKITRKKSVITYSPTTGTCQMSLFASPTSSEEQKHRNGLSNEKRKKLNHPSLTESKESTTKDNDEFMMLLSKVEKLSEEIMEIMQNLSSIQ
On to B2, for which the binding result in assay [2] and in assay [3] was “no binding” throughout.
